Measurements from patent publication US20240279356A1 (Xencor, published 2024).
Where a chain is given by its changes, count along the chain named.

B1: XENP32561 (bispecific antibody)
heavy: QVQLVQSGAEVKKPGASVKVSCKASGYTFTSYWMHWVRQAPGQGLEWMGMIHPNSDNTIYYEKFQGRVTMTVDKSISTAYMELSRLRSDDTAVYYCAIIITPVVPKFDYWGQGTLVTVSSASTKGPSVFPLAPSSKSTSGGTAALGCLVKDYFPEPVTVSWNSGALTSGVHTFPAVLQSSGLYSLSSVVTVPSSSLGTQTYICNVNHKPSDTKVDKKVEPKSCDKTHTCPPCPAPPVAGPSVFLFPPKPKDTLMISRTPEVTCVVVDVKHEDPEVKFNWYVDGVEVHNAKTKPREEEYNSTYRVVSVLTVLHQDWLNGKEYKCKVSNKALPAPIEKTISKAKGQPREPQVYTLPPSREEMTKNQVSLTCDVSGFYPSDIAVEWESDGQPENNYKTTPPVLDSDGSFFLYSKLTVDKSRWEQGDVFSCSVMHEALHNHYTQKSLSLSPGK
scFv-Fc: not shown
light: DIVMTQSPDSLAVSLGERATINCKASHSVGTSVAWYQQKPGQSPKLLIYWASTRHTGVPDRFTGSGSGTDFTLTISSLQAEDVAVYFCQQYSSYPLTFGAGTKLEIKRTVAAPSVFIFPPSDEQLKSGTASVVCLLNNFYPREAKVQWKVDNALQSGNSQESVTEQDSKDSTYSLSSTLTLSKADYEKHKVYACEVTHQGLSSPVTKSFNRGEC
notes: 1+1 Fab-scFv-Fc
B2: XENP32562 (bispecific antibody)
heavy: B1 heavy
scFv-Fc: not shown
light: B1 light with S28D, G30L
notes: 1+1 Fab-scFv-Fc
B3: XENP32563 (bispecific antibody)
heavy: B1 heavy
scFv-Fc: not shown
light: B1 light with S28D, S32Y
notes: 1+1 Fab-scFv-Fc
B4: XENP31697 (bispecific antibody)
heavy: B1 heavy
scFv-Fc: not shown
light: B1 light with S28D
notes: 1+1 Fab-scFv-Fc anti-MSLN x anti-CD3
B5: XENP32853 (bispecific antibody)
heavy 1: B1 heavy
heavy 2: QVQLVQSGAEVKKPGASVKVSCKASGYTFTSYWMHWVRQAPGQGLEWMGMIHPNSDNTIYYEKFQGRVTMTVDKSISTAYMELSRLRSDDTAVYYCAIIITPVVPKFDYWGQGTLVTVSSASTKGPSVFPLAPSSKSTSGGTAALGCLVKDYFPEPVTVSWNSGALTSGVHTFPAVLQSSGLYSLSSVVTVPSSSLGTQTYICNVNHKPSNTKVDKKVEPKSCGGGGSGGGGSQAVVTQEPSLTVSPGGTVTLTCGSSTGAVTTSNYANWVQQKPGKSPRGLIGGTNKRAPGVPARFSGSLLGGKAALTISGAQPEDEADYYCALWYSNHWVFGGGTKLTVLGKPGSGKPGSGKPGSGKPGSEVQLVESGGGLVQPGGSLRLSCAASGFTFSTYAMNWVRQAPGKGLEWVGRIRSKYNNYATYYADSVKGRFTISRDDSKNTLYLQMNSLRAEDTAVYYCVRHGNFGDEYVSWFAYWGQGTLVTVSSEPKSSDKTHTCPPCPAPPVAGPSVFLFPPKPKDTLMISRTPEVTCVVVDVKHEDPEVKFNWYVDGVEVHNAKTKPREEQYNSTYRVVSVLTVLHQDWLNGKEYKCKVSNKALPAPIEKTISKAKGQPREPQVYTLPPSREQMTKNQVKLTCLVKGFYPSDIAVEWESNGQPENNYKTTPPVLDSDGSFFLYSKLTVDKSRWQQGNVFSCSVMHEALHNHYTQKSLSLSPGK
light: B1 light with S28D, S92Y
notes: 2+1 Fab2-scFv-Fc; copies: 1 + 1 + 2
B6: XENP31717 (bispecific antibody)
heavy 1: B1 heavy
heavy 2: QVQLVQSGAEVKKPGASVKVSCKASGYTFTSYWMHWVRQAPGQGLEWMGMIHPNSDNTIYYEKFQGRVTMTVDKSISTAYMELSRLRSDDTAVYYCAIIITPVVPKFDYWGQGTLVTVSSASTKGPSVFPLAPSSKSTSGGTAALGCLVKDYFPEPVTVSWNSGALTSGVHTFPAVLQSSGLYSLSSVVTVPSSSLGTQTYICNVNHKPSNTKVDKKVEPKSCGGGGSGGGGSQAVVTQEPSLTVSPGGTVTLTCGSSTGAVTTSNYANWVQQKPGKSPRGLIGGTNKRAPGVPARFSGSLLGGKAALTISGAQPEDEADYYCALWYSNHWVFGGGTKLTVLGKPGSGKPGSGKPGSGKPGSEVQLVESGGGLVQPGGSLRLSCAASGFTFSTYAMNWVRQAPGKGLEWVGRIRSKANNYATYYADSVKGRFTISRDDSKNTLYLQMNSLRAEDTAVYYCVRHGNFGDSYVSWFAYWGQGTLVTVSSGGGGSGGGGSKTHTCPPCPAPPVAGPSVFLFPPKPKDTLMISRTPEVTCVVVDVKHEDPEVKFNWYVDGVEVHNAKTKPREEQYNSTYRVVSVLTVLHQDWLNGKEYKCKVSNKALPAPIEKTISKAKGQPREPQVYTLPPSREQMTKNQVKLTCLVKGFYPSDIAVEWESNGQPENNYKTTPPVLDSDGSFFLYSKLTVDKSRWQQGNVFSCSVMHEALHNHYTQKSLSLSPGK
light: B1 light with S28D
notes: 2+1 Fab2-scFv-Fc anti-MSLN x anti-CD3
B7: XENP32948 (bispecific antibody)
heavy: B1 heavy with E62Q
Fab-scFv-Fc: B6 heavy 2 with E62Q
light: B1 light with S28D, S92Y
notes: 2+1 Fab2-scFv-Fc
B8: XENP32947 (bispecific antibody)
heavy 1: B1 heavy with M50W
heavy 2: B6 heavy 2 with M50W
light: B1 light with S28D
notes: as for B5
B9: XENP32748 (bispecific antibody)
heavy 1: B1 heavy
heavy 2: B6 heavy 2
light: B1 light with S28D, G30L
notes: 2+1 Fab2-scFv-Fc
B10: XENP32937 (bispecific antibody)
heavy: B1 heavy with E62Q
scFv-Fc: not shown
light: B1 light with S28D, S92Y
notes: 1+1 Fab-scFv-Fc
B11: XENP32751 (bispecific antibody)
heavy: B1 heavy
Fab-scFv-Fc: B6 heavy 2
light: B1 light with S28D, S32Y
notes: as for B5
B12: XENP32745 (bispecific antibody)
heavy 1: B1 heavy
heavy 2: B6 heavy 2
light: B1 light
notes: 2+1 Fab2-scFv-Fc
B13: XENP32852 (bispecific antibody)
heavy 1: B1 heavy
heavy 2: B6 heavy 2
light: B1 light with S28D, S92Y
notes: as for B5

molecular target: T1, human MSLN antigen (human, UniProt Q13421 296-580, limits assumed); test: Octet BLI; bsAb on anti-human Fc sensor, human MSLN as analyte, one concentration
T1 construct: Soluble antigen for BLI; also called Mesothelin; MESO
T1 sequence (Q13421 other isoform, or with tags, fused parts or gaps limits assumed): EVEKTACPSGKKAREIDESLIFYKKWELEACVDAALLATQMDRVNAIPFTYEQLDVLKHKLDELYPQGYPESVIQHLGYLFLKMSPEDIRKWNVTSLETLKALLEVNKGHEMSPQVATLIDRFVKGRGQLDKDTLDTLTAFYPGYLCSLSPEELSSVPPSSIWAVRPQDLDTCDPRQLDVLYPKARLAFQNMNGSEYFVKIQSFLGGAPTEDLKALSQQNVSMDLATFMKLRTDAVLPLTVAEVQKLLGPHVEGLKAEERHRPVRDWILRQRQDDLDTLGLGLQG
Outline: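 Biolayer interferometry: human MSLN served as analyte, with association then dissociation in buffer, against bispecific antibodies (MESO-C variant Fvs paired with anti-CD3) bound to anti-human Fc sensors. Kinetic constants (KD, ka, kd) came from single-concentration screening of the large library, or from multiple-concentration runs for favoured and combined variants.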

Q: Which Kd does the source give for B1 here?
A: 0.355 nM

Q: What about the Response of the same binder?
A: 1.08

Q: What about the koff of the same binder?
A: 0.000215 s⁻¹

Q: What about the kon of the same binder?
A: 606000 M⁻¹ s⁻¹

Q: Which results are given for B2?
A: Kd: 0.628 nM; Response: 1.01; koff: 0.000409 s⁻¹; kon: 651000 M⁻¹ s⁻¹

Q: With B3 as the binder, how does the Response read?
A: 0.898

Q: What about the koff of the same binder?
A: 0.00672 s⁻¹

Q: And the kon?
A: 527000 M⁻¹ s⁻¹

molecular target: T1, human MSLN antigen; test: Octet BLI on human MSLN antigen (Example 2B(a)); KD quoted in the FIG. 35 legend
Excerpt: (§1) Variants of MESO-C were engineered by introducing point substitutions into the variable heavy region (VH) and the variable light region (VL) to generate 11 VH variants and 16 VL variants (sequences for which are depicted in FIG. 18 as H1.1-H1.13 and in FIG. 19 as L1.1-L1.18). An additional 4 VL variants were generated by combining useful point substitutions (sequences for which are depicted in FIG. 19 as L1.19-L1.22). WT and variant variable heavy regions were paired with WT and variant variable light regions to generate variant variable regions (Fvs) which were produced in the context of anti-MSLN×anti-CD3 bispecific antibodies. The bispecific antibodies were screened for MSLN binding affinity using Octet®, a BioLayer Interferometry (BLI)-based method. Experimental steps for Octet® generally include the following: Immobilization (capture of ligand to a biosensor); Association (dipping of ligand-coated biosensors into wells containing the analyte); and Dissociation (returning of biosensors to well containing buffer). In an initial screening, anti-human Fc sensors were used to capture the bispecific mAbs and dipped into human MSLN antigen (one concentration to screen large library). The resulting dissociation constant of illustrative variants (KD), association rate (kₐ), dissociation rate (kd), as well as sensorgram response are depicted in FIG. 20. In further screening of favorite variants identified in the initial screen (and combination variants), bispecific mAbs were dipped into multiple concentrations of human MSLN antigen, data for which are depicted in FIG. 21 (from various screens).

Q: B4 was tested. Which Kd did it give?
A: 0.28 nM

Q: With B5 as the binder, how does the Kd read?
A: 3.9 nM

Q: How did the Kd turn out when B6 was run?
A: 0.28 nM

Q: How did the Kd turn out when B7 was run?
A: 10.2 nM

Q: For B1, which Kd is on record?
A: 0.45 nM

Q: With B8 as the binder, how does the Kd read?
A: 9.2 nM

Q: For B9, which Kd is on record?
A: 0.74 nM

Q: How did the Kd turn out when B2 was run?
A: 0.74 nM

Q: For B10, which Kd is on record?
A: 10.2 nM

Q: How did the Kd turn out when B11 was run?
A: ~12.8 nM

Q: Which Kd does the source give for B12 here?
A: 0.45 nM

Q: For B3, which Kd is on record?
A: ~12.8 nM

Q: With B13 as the binder, how does the Kd read?
A: 3.9 nM

molecular target: T2, cyno MSLN (Macaca fascicularis (cynomolgus)); test: Octet BLI; bsAb on anti-human Fc sensor, cyno MSLN as analyte, one concentration
T2 construct: soluble antigen for Octet; also called cynomolgus MSLN

Q: B1 was tested. Which Kd did it give?
A: 0.413 nM

Q: What about the Response of the same binder?
A: 0.976

Q: What about the koff of the same binder?
A: 0.000248 s⁻¹

Q: What about the kon of the same binder?
A: 600000 M⁻¹ s⁻¹

Q: For B2, which Kd is on record?
A: 0.887 nM

Q: What about the Response of the same binder?
A: 0.9

Q: And the koff?
A: 0.000594 s⁻¹

Q: And the kon?
A: 669000 M⁻¹ s⁻¹

Q: For B3, which Kd is on record?
A: 13.1 nM

Q: What about the Response of the same binder?
A: 0.817

Q: And the koff?
A: 0.00713 s⁻¹

Q: And the kon?
A: 543000 M⁻¹ s⁻¹

molecular target: T3, MSLN on OVCAR8 (MSLN^high) and other cancer cell lines (UniProt Q13421 296-598); test: flow cytometry on OVCAR8 cells, detected with A647-labelled anti-human Fc mAb
T3 construct: whole, on cells; Endogenous surface MSLN; also called MSLN^high OVCAR8 cells; MSLN^low SKOV3 and HT29 cells
T3 sequence (Q13421 other isoform, or with tags, fused parts or gaps limits assumed): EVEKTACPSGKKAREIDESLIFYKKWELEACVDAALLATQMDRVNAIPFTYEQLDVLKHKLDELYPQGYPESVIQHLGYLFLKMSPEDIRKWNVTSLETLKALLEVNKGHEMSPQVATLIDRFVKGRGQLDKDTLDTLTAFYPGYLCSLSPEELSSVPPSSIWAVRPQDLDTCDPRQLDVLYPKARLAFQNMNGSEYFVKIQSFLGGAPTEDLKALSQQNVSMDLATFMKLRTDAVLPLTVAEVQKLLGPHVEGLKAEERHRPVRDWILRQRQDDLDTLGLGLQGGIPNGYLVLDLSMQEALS
Protocol: Next, the effect of MSLN binding affinity was investigated. 100,000 OVCAR8 (MSLN^high) cells were treated with the indicated concentrations of the indicated test articles. […] Further, XENP32852 and XENP32853 which differ only in CD3 binding affinity have identical binding to OVCAR8 cells confirming that avid binding is due to the MSLN binding domain.

Q: How did the “EC50 (read off the curve)” value turn out when B4 was run?
A: ~0.07 mg/L

Q: B5 was tested. Which “EC50 (read off the curve)” value did it give?
A: ~0.06 mg/L

Q: Which “EC50 (read off the curve)” value does the source give for B6 here?
A: ~0.04 mg/L

Q: Which “EC50 (read off the curve)” value does the source give for B1 here?
A: ~0.2 mg/L

Q: For B9, which “EC50 (read off the curve)” value is on record?
A: ~0.04 mg/L

Q: Which “EC50 (read off the curve)” value does the source give for B2 here?
A: ~0.2 mg/L

Q: For B11, which “EC50 (read off the curve)” value is on record?
A: ~0.05 mg/L

Q: Which “EC50 (read off the curve)” value does the source give for B12 here?
A: ~0.05 mg/L

Q: B13 was tested. Which “EC50 (read off the curve)” value did it give?
A: ~0.06 mg/L

molecular target: T1, human MSLN antigen; test: Octet BLI; bsAb on anti-human Fc sensor, human MSLN as analyte, several concentrations
Excerpt: as §1

Q: How did the Response turn out when B10 was run?
A: 0.183

Q: What about the koff of the same binder?
A: 0.00822 s⁻¹

Q: What about the kon of the same binder?
A: 803000 M⁻¹ s⁻¹
